Results taken from the supplement of paper PMC5998384.

Legend:
HeLa Kyoto [1] = test: solubility in G1/S (NP-40 vs SDS abundance) (log2 ratio); higher = more soluble; conditions: cell cycle stage: G1/S
HeLa Kyoto [2] = test: melting temperature (median over replicates), in situ; higher = more thermally stable
HeLa Kyoto [3] = test: solubility change mitosis vs G1/S (difference of NP-40 vs SDS log2 ratios) (log2 ratio difference); higher = more soluble in mitosis
HeLa Kyoto [4] = test: thermal stability score vs G1/S (z-score of summed log2 fold changes over temperatures); higher = more thermally stable than in G1/S
[5] = cell cycle stage: early G1 (4.5 h after nocodazole release)
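Throughout, for melting temperature (median over replicates), in situ: HeLa Kyoto cells synchronized by double thymidine or nocodazole block, proteins quantified by TMT10plex mass spectrometry, three independent biological replicates.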
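Throughout, for solubility change mitosis vs G1/S (difference of NP-40 vs SDS log2 ratios): synchronized HeLa Kyoto cells (double thymidine block for G1/S, nocodazole release for mitosis), protein amounts in NP-40 versus SDS lysates quantified by mass spectrometry, three biological replicates.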
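Throughout, for solubility in G1/S (NP-40 vs SDS abundance): HeLa Kyoto cells arrested at G1/S by double thymidine block, proteins quantified by TMT10plex mass spectrometry in mild NP-40 versus SDS extracts, three biological replicates.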
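Throughout, for thermal stability score vs G1/S (z-score of summed log2 fold changes over temperatures): synchronized HeLa Kyoto cells, proteins quantified by TMT10plex mass spectrometry, three biological replicates, mitosis taken 0.5 h after nocodazole release, G1/S directly after double thymidine block.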

| Sequence | solubility in G1/S (log2) (HeLa Kyoto [1]) | melting temperature (HeLa Kyoto [2]; cell cycle stage: G1/S) [°C] | melting temperature (HeLa Kyoto [2]; cell cycle stage: mitosis) [°C] | solubility change mitosis (log2) (HeLa Kyoto [3]) | thermal stability score (HeLa Kyoto [4]; [5]) | thermal stability score (HeLa Kyoto [4]; cell cycle stage: mitosis) |
| --- | --- | --- | --- | --- | --- | --- |
| MNTEAEQQLLHHARNGNAEEVRQLLETMARNEVIADINCKGRSKSNLGWTPLHLACYFGHRQVVQDLLKAGAEVNVLNDMGDTPLHRAAFTGRKELVMLLLEYNADTTIVNGSGQTAKEVTHAEEIRSMLEAVERTQQRKLEELLLAAAREGKTTELTALLNRPNPPDVNCSDQLGNTPLHCAAYRAHKQCALKLLRSGADPNLKNKNDQKPLDLAQGAEMKHILVGNKVIYKALKRYEGPLWKSSRFFGWRLFWVVLEHGVLSWYRKQPDAVHNIYRQGCKHLTQAVCTVKSTDSCLFFIKCFDDTIHGFRVPKNSLQQSREDWLEAIEEHSAYSTHYCSQDQLTDEEEEDTVSAADLKKSLEKAQSCQQRLDREISNFLKMIKECDMAKEMLPSFLQKVEVVSEASRETCVALTDCLNLFTKQEGVRNFKLEQEQEKNKILSEALETLATEHHELEQSLVKGSPPASILSEDEFYDALSDSESERSLSRLEAVTARSFEEEGEHLGSRKHRMSEEKDCGGGDALSNGIKKHRTSLPSPMFSRNDFSIWSILRKCIGMELSKITMPVIFNEPLSFLQRLTEYMEHTYLIHKASSLSDPVERMQCVAAFAVSAVASQWERTGKPFNPLLGETYELVRDDLGFRLISEQVSHHPPISAFHAEGLNNDFIFHGSIYPKLKFWGKSVEAEPKGTITLELLEHNEAYTWTNPTCCVHNIIVGKLWIEQYGNVEIINHKTGDKCVLNFKPCGLFGKELHKVEGYIQDKSKKKLCALYGKWTECLYSVDPATFDAYKKNDKKNTEEKKNSKQMSTSEELDEMPVPDSESVFIIPGSVLLWRIAPRPPNSAQMYNFTSFAMVLNEVDKDMESVIPKTDCRLRPDIRAMENGEIDQASEEKKRLEEKQRAARKNRSKSEEDWKTRWFHQGPNPYNGAQDWIYSGSYWDRNYFNLPDIY [OSBPL1A] | 0.0257 | 51 | 51 | -0.0641 | -0.0179 | -0.158 |
| MGEEDYYLELCERPVQFEKANPVNCVFFDEANKQVFAVRSGGATGVVVKGPDDRNPISFRMDDKGEVKCIKFSLENKILAVQRTSKTVDFCNFIPDNSQLEYTQECKTKNANILGFCWTSSTEIVFITDQGIEFYQVLPEKRSLKLLKSHNLNVNWYMYCPESAVILLSTTVLENVLQPFHFRAGTMSKLPKFEIELPAAPKSTKPSLSERDIAMATIYGQLYVLFLRHHSRTSNSTGAEVVLYHLPREGACKKMHILKLNRTGKFALNVVDNLVVVHHQDTETSVIFDIKLRGEFDGSVTFHHPVLPARSIQPYQIPITGPAAVTSQSPVPCKLYSSSWIVFQPDIIISASQGYLWNLQVKLEPIVNLLPDKGRLMDFLLQRKECKMVILSVCSQMLSESDRASLPVIATVFDKLNHEYKKYLDAEQSYAMAVEAGQSRSSPLLKRPVRTQAVLDQSDVYTHVLSAFVEKKEMPHKFVIAVLMEYIRSLNQFQIAVQHYLHELVIKTLVQHNLFYMLHQFLQYHVLSDSKPLACLLLSLESFYPPAHQLSLDMLKRLSTANDEIVEVLLSKHQVLAALRFIRGIGGHDNISARKFLDAAKQTEDNMLFYTIFRFFEQRNQRLRGSPNFTPGEHCEEHVAFFKQIFGDQALMRPTTF [C18ORF8] | -0.0478 | 51.1 | 50.8 | -0.121 | 0.23 | 0.326 |
| MEEEGLECPNSSSEKRYFPESLDSSDGDEEEVLACEDLELNPFDGLPYSSRYYKLLKEREDLPIWKEKYSFMENLLQNQIVIVSGDAKCGKSAQVPQWCAEYCLSIHYQHGGVICTQVHKQTVVQLALRVADEMDVNIGHEVGYVIPFENCCTNETILRYCTDDMLQREMMSNPFLGSYGVIILDDIHERSIATDVLLGLLKDVLLARPELKLIINSSPHLISKLNSYYGNVPVIEVKNKHPVEVVYLSEAQKDSFESILRLIFEIHHSGEKGDIVVFLACEQDIEKVCETVYQGSNLNPDLGELVVVPLYPKEKCSLFKPLDETEKRCQVYQRRVVLTTSSGEFLIWSNSVRFVIDVGVERRKVYNPRIRANSLVMQPISQSQAEIRKQILGSSSSGKFFCLYTEEFASKDMTPLKPAEMQEANLTSMVLFMKRIDIAGLGHCDFMNRPAPESLMQALEDLDYLAALDNDGNLSEFGIIMSEFPLDPQLSKSILASCEFDCVDEVLTIAAMVTAPNCFSHVPHGAEEAALTCWKTFLHPEGDHFTLISIYKAYQDTTLNSSSEYCVEKWCRDYFLNCSALRMADVIRAELLEIIKRIELPYAEPAFGSKENTLNIKKALLSGYFMQIARDVDGSGNYLMLTHKQVAQLHPLSGYSITKKMPEWVLFHKFSISENNYIRITSEISPELFMQLVPQYYFSNLPPSESKDILQQVVDHLSPVSTMNKEQQMCETCPETEQRCTLQ [DHX32] | -0.155 | 49.4 | 50 | -0.152 | -0.0722 | 0.258 |
| MAGIIKKQILKHLSRFTKNLSPDKINLSTLKGEGELKNLELDEEVLQNMLDLPTWLAINKVFCNKASIRIPWTKLKTHPICLSLDKVIMEMSTCEEPRSPNGPSPIATASGQSEYGFAEKVVEGISVSVNSIVIRIGAKAFNASFELSQLRIYSVNAHWEHGDLRFTRIQDPQRGEVLTFKEINWQMIRIEADATQSSHLEIMCAPVRLITNQSKIRVTLKRRLKDCNVIATKLVLILDDLLWVLTDSQLKAMVQYAKSLSEAIEKSTEQRKSMAPEPTQSSTVVASAQQVKTTQTSNAPDVNDAIVKLFNDFDVKETSHHLVISHLDLHICDDIHAKEKESNRRITGGAMQLSFTQLTIDYYPYHKAGDSCNHWMYFSDATKTKNGWANELLHEFECNVEMLKQAVKDHNVGSPPKSPTHASPQHTQTEKDYPLKGTCRTPSVLSQQSKAKLMSSSVVVRLADFNIYQVSTAEQCRSSPKSMICCNKKSLYLPQEMSAVYIEFTEYYYPDGKDFPIPSPNLYSQLNALQFTVDERSILWLNQFLLDLKQSLNQFMAVYKLNDNSKSDEHVDVRVDGLMLKFVIPSEVKSECHQDQPRAISIQSSEMIATNTRHCPNCRHSDLEALFQDFKDCDFFSKTYTSFPKSCDNFNLLHPIFQRHAHEQDTKMHEIYKGNITPQLNKNTLKTSAATDVWAVYFSQFWIDYEGMKSGKGRPISFVDSFPLSIWICQPTRYAESQKEPQTCNQVSLNTSQSESSDLAGRLKRKKLLKEYYSTESEPLTNGGQKPSSSDTFFRFSPSSSEADIHLLVHVHKHVSMQINHYQYLLLLFLHESLILLSENLRKDVEAVTGSPASQTSICIGILLRSAELALLLHPVDQANTLKSPVSESVSPVVPDYLPTENGDFLSSKRKQISRDINRIRSVTVNHMSDNRSMSVDLSHIPLKDPLLFKSASDTNLQKGISFMDYLSDKHLGKISEDESSGLVYKSGSGEIGSETSDKKDSFYTDSSSILNYREDSNILSFDSDGNQNILSSTLTSKGNETIESIFKAEDLLPEAASLSENLDISKEETPPVRTLKSQSSLSGKPKERCPPNLAPLCVSYKNMKRSSSQMSLDTISLDSMILEEQLLESDGSDSHMFLEKGNKKNSTTNYRGTAESVNAGANLQNYGETSPDAISTNSEGAQENHDDLMSVVVFKITGVNGEIDIRGEDTEICLQVNQVTPDQLGNISLRHYLCNRPVGSDQKAVIHSKSSPEISLRFESGPGAVIHSLLAEKNGFLQCHIENFSTEFLTSSLMNIQHFLEDETVATVMPMKIQVSNTKINLKDDSPRSSTVSLEPAPVTVHIDHLVVERSDDGSFHIRDSHMLNTGNDLKENVKSDSVLLTSGKYDLKKQRSVTQATQTSPGVPWPSQSANFPEFSFDFTREQLMEENESLKQELAKAKMALAEAHLEKDALLHHIKKMTVE [UHRF1BP1L] | -0.0678 | 53.9 | 53.8 | -0.181 | -1.27 | -1.34 |
| MAGPRVEVDGSIMEGGGQILRVSTALSCLLGLPLRVQKIRAGRSTPGLRPQHLSGLEMIRDLCDGQLEGAEIGSTEITFTPEKIKGGIHTADTKTAGSVCLLMQVSMPCVLFAASPSELHLKGGTNAEMAPQIDYTVMVFKPIVEKFGFIFNCDIKTRGYYPKGGGEVIVRMSPVKQLNPINLTERGCVTKIYGRAFVAGVLPFKVAKDMAAAAVRCIRKEIRDLYVNIQPVQEPKDQAFGNGNGIIIIAETSTGCLFAGSSLGKRGVNADKVGIEAAEMLLANLRHGGTVDEYLQDQLIVFMALANGVSRIKTGPVTLHTQTAIHFAEQIAKAKFIVKKSEDEEDAAKDTYIIECQGIGMTNPNL [RTCA] | 0.177 | 54.4 | 54.4 | -0.173 | -1.26 | -1.94 |
